Measured values published in PMC11408749.
Values belong to the substance of their own block, whether it stands above or below them.

What was measured:
[1] = molecular target: DNMT3BΔ214 (residues 215–853) H814R (human) (UniProt Q9UBC3)
[2] = molecular target: DNMT3BΔ214 (residues 215–853) H814R (human) (UniProt Q9UBC3); test: AUC; sedimentation velocity, 40,000 rpm, 15 h, 20 C; 20 mM Tris-HCl pH 8.0, 300 mM NaCl, 1 mM TCEP, 5% glycerol; WT DNMT3BΔ214-3L at 2.5, 5.0 and 6.25 uM, mutant complexes at 5 uM; c(s) model in SEDFIT
[3] = molecular target: DNMT3BΔ214 (residues 215–853) V818M (human) (UniProt Q9UBC3)
[4] = molecular target: DNMT3BΔ214 (residues 215–853) V818M (human) (UniProt Q9UBC3); test: AUC; sedimentation velocity, 40,000 rpm, 15 h, 20 C; 20 mM Tris-HCl pH 8.0, 300 mM NaCl, 1 mM TCEP, 5% glycerol; WT DNMT3BΔ214-3L at 2.5, 5.0 and 6.25 uM, mutant complexes at 5 uM; c(s) model in SEDFIT
[5] = molecular target: DNMT3BΔ214 (residues 215–853) D817G (human) (UniProt Q9UBC3)
[6] = molecular target: DNMT3BΔ214 (residues 215–853) D817G (human) (UniProt Q9UBC3); test: AUC; sedimentation velocity, 40,000 rpm, 15 h, 20 C; 20 mM Tris-HCl pH 8.0, 300 mM NaCl, 1 mM TCEP, 5% glycerol; WT DNMT3BΔ214-3L at 2.5, 5.0 and 6.25 uM, mutant complexes at 5 uM; c(s) model in SEDFIT

MTase activity of the DNMT3BΔ214-3L complex (MTase-Glo, 0.2 uM complex, 36-bp dsDNA), percent of the WT complex [1]: 1.09 % of WT
percent of the population as hetero-tetramer (168 kDa peak, DNMT3B dimerised) [2]: 1.5%
Substance: DNMT3BΔ214 (residues 215–853) H814R (from UniProt Q9UBC3 215-853) (domain or fragment)

MTase activity of the DNMT3BΔ214-3L complex (MTase-Glo, 0.2 uM complex, 36-bp dsDNA), percent of the WT complex [3]: 35.9 % of WT
percent of the population as hetero-tetramer (168 kDa peak, DNMT3B dimerised) [4]: 28.3%
Substance: DNMT3BΔ214 (residues 215–853) V818M (from UniProt Q9UBC3 215-853) (domain or fragment)

MTase activity of the DNMT3BΔ214-3L complex (MTase-Glo, 0.2 uM complex, 36-bp dsDNA), percent of the WT complex [5]: 5.43 % of WT
percent of the population as hetero-tetramer (168 kDa peak, DNMT3B dimerised) [6]: 4.9%
Substance: DNMT3BΔ214 (residues 215–853) D817G (from UniProt Q9UBC3 215-853) (domain or fragment)
